According to US10494417B2, “Peptide inhibitors of BCR-ABL oligomerization” (University of Utah Research Foundation, priority 2014, dated 2019):
Values joined by “and” are separate entries in the source; they are usually repeats but may differ in a detail not shown here. Equal entries are not always repeated.

Experiments:
[1] = tested on: CD34+ cells from newly diagnosed CML patients; experiment: Proliferation of lentivirus-infected CD34+ cells from newly diagnosed CML patients; assay type: cell-based, human; settings: for cell growth, in words: lentiviral CCmut3 compared with EV cells treated with 2.5 μM imatinib
Protocol: Mononuclear cells (MNCs) were separated from the peripheral blood of patients with newly diagnosed or therapy-resistant CML with a documented T315I mutation, using Ficoll (Nycomed, Oslo, Norway). Isolation of the CD34^+ fraction was done on an autoMACS Pro (Miltenyi Biotech). CD34^+ progenitors were maintained at 1×10^6 cells/mL in RPMI1640 containing 20% FBS and 5 μL/mL StemSpan CC100 (Stem Cell Technologies, Vancouver, BC, Canada). Cells were infected with lentivirus at a multiplicity of infection (MOI) of 5 for each construct at 24 and 48 hours following harvest (fresh cells) or thaw (frozen cells). Cells were sorted on a BD FACSAria cytometer after 72 h, and GFP-positive cells were returned to culture medium for future experiments. All patients gave their informed consent in accordance with the Declaration of Helsinki, and all studies with human specimens were approved by The University of Utah Institutional Review Board (IRB).
Cell proliferation was assessed using the CellTiter 96® AQueous One Solution Cell Proliferation Assay (MTS assay, Promega) according to manufacturer instructions. […] In some experiments, cell proliferation was assessed using a Neubauer chamber and trypan blue dye exclusion.
Mononuclear cells (MNCs) from peripheral blood of patients with newly diagnosed or TKI-resistant CML were separated by Ficoll (Nycomed, Oslo, Norway), and the CD34+ fraction was isolated using an autoMACS Pro Separator (Miltenyi Biotech, San Diego, Calif., USA). Purity was determined to be >90% by flow cytometric analysis using a Guava 6HT flow cytometer (Millipore, Billerica, Mass., USA). […]
293FT cells (Life Technologies, Grand Island, N.Y., USA) were grown in DMEM with 10% FBS, 100 U/ml penicillin-streptomycin, 2 mM L-glutamine, 0.1 mM MEM-non-essential amino acids, and 1 mM sodium pyruvate (Life Technologies, Grand Island, N.Y., USA). […] Lentiviral titers were determined. […]
Cell proliferation was assessed using a […] viability assay (MTS assay) utilizing CellTiter 96® AQueous One Solution Cell Proliferation Assay (Promega) according to manufacturer instructions. […]

Ba/F3-p210-T315I cells = experiment: Annexin V/7-AAD apoptosis assay in Ba/F3 BCR-ABL1 T315I cells; assay type: cell-based, mouse; settings: 72 h, CCmut3 vs EV
Protocol: Assays were run in triplicate (n=3).
(§1) For analysis of apoptosis and cell death, cells were pelleted and resuspended in Annexin V-binding buffer (BD Biosciences), stained with anti-Annexin V-APC (BD Biosciences or Life Technologies) and 7-AAD (BD Biosciences or Life Technologies) and analyzed on a BD FACSCanto flow cytometer. In addition to the APC and 7-AAD channels, GFP- and mCherry-positive cells were also recorded.
as §1, with “apoptosis and necrotic cell death,” for “apoptosis and cell death,”, “anti-Annexin V-APC and 7-AAD” for “anti-Annexin V-APC (BD Biosciences or Life Technologies) and 7-AAD”

[2] = tested on: Ba/F3 cells expressing BCR-ABL1E255V; experiment: Colony forming assay of Ba/F3 BCR-ABL1 E255V cells; assay type: cell-based, mouse; settings: for colony formation, in words: CCmut3 gene delivery (transfection; b502 lentiviral infection) vs EV; for reduction in CFCs / colony forming ability: CCmut3 vs EV
Protocol: Following selection of transfected cells by cell sorting, viable cells were enumerated and seeded into methylcellulose as described previously (Dixon, A. S., et al. (2011) J. Biol. Chem. 286, 27751-27760). Briefly, mCherry-positive Ba/F3 cells were re-suspended in IMDM with 2% FBS (Stem Cell Technologies) at a concentration of 10,000 cells/mL. Three hundred microliters of this dilution was added to 3 mL of Methocult media (M3434—Ba/F3 p210 wild-type and mutant lines or M3234—Ba/F3 parental, Stem Cell Technologies). Approximately 1100 cells, or 1.2 mL, were seeded per dish in duplicate for each transfection. Colonies were counted 7 days later in an area of […] per dish.
Following selection of transfected cells by cell sorting, methylcellulose colony assays were performed by plating in 0.9% methylcellulose (Stem Cell Technologies; M3234 for Ba/F3 BCR-ABL1 native and mutant lines; M3434 for Ba/F3 parental cells; H4230 for CML patient samples). mCherry-positive Ba/F3 cells (1.1×10^3 cells/plate) or GFP-positive primary CML CD34+ cells (1×10^3 cells/plate) were seeded per dish in duplicate. In the case of CML patient samples, cells were plated in the presence of 1× StemSpan CC100 cytokine cocktail (StemCell Technologies). All cells were plated with or without the indicated TKI in three or more independent experiments. Plates were incubated at 37° C. in a 5% CO2 humidified incubator. Colonies were counted 7-14 days later in an area of 50 μm2 per dish using an inverted microscope.

B1: CCmut3: modified Bcr-Abl coiled-coil domain (residues 1-72) with mutations C38A, K39E, S41R, L45D, E48R, Q60E (protein)
chain: MVDPVGFAEAWKAQFPDSEPPRMELRSVGDIEQELERAEARIRRDEQRVNQERFRMIYLETLLAKEKKSYDR
With B1 the “cell growth, in words” value [1] was “significant reduction compared to inhibition by imatinib”, the “cell growth, in words” value ([1]; listed as CC^mut3) was “considerably more pronounced reduction of growth than observed with IM” and the “reduction of cell proliferation/growth” value ([1]; lentiviral CCmut3 vs EV, trypan blue exclusion) was “more than 2 fold”. The “apoptosis, in words” value (Ba/F3-p210-T315I cells) was “increase of apoptosis”, the increase in apoptosis (Ba/F3-p210-T315I cells) was 6-8 fold and > 5 fold and the “apoptosis, in words” value (Ba/F3-p210-T315I cells; listed as CC^mut3) was “significant shift toward the apoptotic fraction”. For the same molecule, the increase in apoptosis (Ba/F3-p210-T315I cells; listed as CC^mut3) was 6-8 fold, the “colony formation, in words” value [2] was “significantly fewer colonies per unit area” and the “colony formation, in words” value ([2]; listed as CC^mut3) was “Inhibition in colony formation”. The “reduction in CFCs / colony forming ability” value [2] was greater than 10 fold and the “reduction in CFCs / colony forming ability” value ([2]; listed as CC^mut3) was “more than 10 fold”.
